Data from paper PMC8612531 (Science Advances, 2021).
Numbering of substitutions follows the chain as printed. Names may count otherwise.

B1: XccBphP R525E-R527E full-length variant, apoprotein (natural protein)
chain: STATNPLDLDVCAREPIHIPGLIQPYGVLLVIDPADGRIVQASTTAADLLGVPMAALLGMPYTQVLTLPEAQPFAVDDQPQHLMHAEVRFPQRATPPASAWVAAWHLYPQQWLVEMEPRDARLLDVTLREAMPLLRSVERDPGIAEAAVRVAKGLRSLIGFDRVMIYRFDEEWNGDIIAEARKPELEAYLGLHYPASDIPAQARALYLRNRVRQIADVGYQPSPIQPTVHPQLGTPVDLSDVSLRSVSPVHLEYLANMGVTATLVASIVVNDALWGLISCHHYSPHFTNHAMRDVTDAVARTLAGRIGALQAVARARLESVLLTVREKLITDFNDAEHMTVELLDDMAPDLMDVVDADGVAIFHGNDISRHGTTPDVAALRRIRDHIESEHHEALREDAVGALHVDAIGEVFPELADLAPLAAGFIFVPLMPQSRSALLWTRREQIQQIKWAGNPQLAKLEDIPNSRLSPRKSFDLWQQTVRGRARRWSPLHLESARSLRVLIELMERKRFQQDFTLLEASLSELEDGVAIIERGTANAAHRLLFVNTAFADVCGSDVAELIGRELQTLYASDAPRANVELLQDALRNGRAAYVTLPLQVSDGAPVYRQFHLEPLPSPSGVTAHWLLQLRDPE
B2: XccBphP G454A variant, holoprotein (biliverdin-bound) (natural protein)
chain: B1 chain with G453A, E524R, E526R
modifications: biliverdin IXα (BV) covalently bound to Cys13 (thioether linkage)
B3: XccBphP W478A variant, apoprotein (natural protein)
chain: B1 chain with W477A, E524R, E526R
B4: XccBphP wild-type full-length bacteriophytochrome, apoprotein (natural protein)
chain: B1 chain with E524R, E526R
B5: XccBphP G454E full-length variant, holoprotein (biliverdin-bound) (natural protein)
chain: B1 chain with G453E, E524R, E526R
modifications: biliverdin IXα (BV) covalently bound to Cys13 (thioether linkage)
B6: XccBphP F512P variant, apoprotein (natural protein)
chain: B1 chain with F511P, E524R, E526R
B7: XccBphP A453E variant, apoprotein (natural protein)
chain: B1 chain with A452E, E524R, E526R
B8: XccBphP W452A-G454E variant, apoprotein (natural protein)
chain: B1 chain with W451A, G453E, E524R, E526R
B9: XccBphP G454E full-length variant, apoprotein (natural protein)
chain: B1 chain with G453E, E524R, E526R
B10: XccBphP G454A variant, apoprotein (natural protein)
chain: B1 chain with G453A, E524R, E526R

Key:
A0A0H2 = test: SEC-MALS
SEC-MALS = biological target: the molecule itself; test: SEC-MALS
SEC = biological target: the molecule itself; test: SEC
crystal structure = biological target: the molecule itself; test: crystal structure

Row | Protein | stoichiometry N (SEC-MALS) | further results
1 | B1 | 2 | percent monomer (main peak) (A0A0H2): Monomer (~85%); percent dimer (secondary peak) (SEC-MALS): ~15%
2 | B2 | – | binding result (SEC): binds
3 | B3 | 2 | –
4 | B4 | 2 | –
5 | B5 | – | binding result (crystal structure): binds
6 | B6 | 2 | –
7 | B7 | 2 | –
8 | B8 | 2 | –
9 | B9 | 2 | –
10 | B10 | 2 | –
